# Legend:
# [1] = biological target: murine CD28 on murine T cells (murine) (UniProt P31041); assay: cell-based or functional assay
# [2] = biological target: murine CTLA-4 on murine T cells (murine) (UniProt P09793); assay: cell-based or functional assay
# Chain of UniProt P09793 (P09793 36-223): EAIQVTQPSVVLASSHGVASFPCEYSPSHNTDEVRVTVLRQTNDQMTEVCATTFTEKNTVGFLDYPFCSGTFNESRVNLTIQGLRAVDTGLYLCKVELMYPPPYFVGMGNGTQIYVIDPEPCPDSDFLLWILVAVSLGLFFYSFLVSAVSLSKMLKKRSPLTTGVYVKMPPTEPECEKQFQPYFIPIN
# Chain of UniProt P31041 (P31041 20-218): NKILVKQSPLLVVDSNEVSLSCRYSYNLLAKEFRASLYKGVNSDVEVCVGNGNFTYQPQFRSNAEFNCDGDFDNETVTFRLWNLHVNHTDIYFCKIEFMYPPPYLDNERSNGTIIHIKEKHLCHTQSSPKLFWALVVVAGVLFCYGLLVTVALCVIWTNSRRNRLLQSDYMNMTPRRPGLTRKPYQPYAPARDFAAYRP
proliferation and cytokine production of pre-activated T cells (increase over mem2C11scFv alone) [1],"reduction in IL-2 production of pre-activated T cells, with combined mem2C11 and memPVIscFvs [2]","reduction in IL-2 production of pre-activated T cells, with mem2C11 scFv alone [2]","reduction in intensity of the tyrosine-phosphorylated LAT band (photodensitometry, against control scFv) [2]","reduction in intensity of the tyrosine-phosphorylated p23 TCR band (photodensitometry, against control scFv) [2]","reduction in proliferation of pre-activated T cells, with combined mem2C11 and memPVIscFvs [2]","reduction in proliferation of pre-activated T cells, with mem2C11 scFv alone [2]",Substance
10 fold,–,–,–,–,–,–,"memPVIscFv (surface-linked anti-murine CD28 scFv derived from hamster mAb PV-1, GPI anchored, expressed on transiently transfected 293 cells)"
–,69%,67%,35%,85%,66%,80%,"mem4F10scFv (surface-linked anti-murine CTLA-4 scFv derived from hamster mAb UC10-4F10, anchored by a murine B7-1 derived motif, expressed on transiently transfected 293 cells) (from UniProt Q00609 247-302)"
